# Measurements from article PMC2836571 (Nucleic Acids Research, 2009).
# Molecular target: the molecule itself
# Experiment: SEC
protein,measurement,value
"ArdB from the E. coli K12 CP4-6 prophage (yafX) (natural protein, E. coli K12/CP4-6 prophage, UniProt P75676 1-152, looked up) MTTQTQHDLAPANQPEFELTVTPVPDEQRIDFWPQYFGAIPQWLLLEPHIFAWMDRFCEGYSGGIWSFYTLSNGGAFMSPEPDNDETWRLFNCLNGNDAQMSAEAAGIAVCLIAYSHHACRTECDAMTAHYYRLREYAMQHPEAHAILRIID",stoichiometry N,2
